In patent US20170107290A1:

Target: human Axl on MDA-MB-231 cells (human) (UniProt P30530)
Sequence of UniProt P30530 (P30530 26-894 Q764R limits assumed): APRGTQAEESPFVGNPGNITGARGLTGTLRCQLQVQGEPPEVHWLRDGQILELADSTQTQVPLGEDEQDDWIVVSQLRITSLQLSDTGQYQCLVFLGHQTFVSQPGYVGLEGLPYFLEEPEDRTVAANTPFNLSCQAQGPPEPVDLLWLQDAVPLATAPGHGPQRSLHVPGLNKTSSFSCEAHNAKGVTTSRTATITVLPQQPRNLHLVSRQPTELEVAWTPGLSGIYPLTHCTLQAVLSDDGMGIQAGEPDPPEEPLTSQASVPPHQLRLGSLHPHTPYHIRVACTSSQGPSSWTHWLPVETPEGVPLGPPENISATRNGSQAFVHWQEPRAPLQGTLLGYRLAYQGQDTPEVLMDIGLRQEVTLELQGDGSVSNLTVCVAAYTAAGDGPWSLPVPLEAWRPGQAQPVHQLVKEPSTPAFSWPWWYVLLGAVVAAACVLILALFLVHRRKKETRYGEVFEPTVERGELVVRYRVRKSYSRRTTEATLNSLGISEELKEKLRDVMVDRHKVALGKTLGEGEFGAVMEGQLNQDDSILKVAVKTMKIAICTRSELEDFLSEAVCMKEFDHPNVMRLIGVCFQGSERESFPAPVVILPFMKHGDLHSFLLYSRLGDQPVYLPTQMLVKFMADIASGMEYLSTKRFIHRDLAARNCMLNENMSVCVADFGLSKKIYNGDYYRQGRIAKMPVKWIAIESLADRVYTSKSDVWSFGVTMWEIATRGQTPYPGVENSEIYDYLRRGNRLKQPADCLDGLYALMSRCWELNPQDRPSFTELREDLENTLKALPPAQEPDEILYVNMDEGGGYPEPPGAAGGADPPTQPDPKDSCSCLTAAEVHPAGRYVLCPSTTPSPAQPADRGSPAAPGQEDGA

Substance	EC50 (pM), concentration leading to 50% cell killing, XTT/PMS viability of MDA-MB-231 cells after 72 h [table]
Control SAP	4080 pM
Saporin	79800 pM
